{"source": "the nanobody polyreactivity screen of Harvey et al. (2022)", "data": [{"assay": "yeast display, Sf9 membrane polyspecificity reagent, FACS + sequencing; frameworks hold sequencing errors", "summary_of_the_method": "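Sorting gates, low and high (top ~1%), were placed on anti-HA fluorescence to track expression and on streptavidin fluorescence to track reagent binding. A clone's polyreactivity label is taken from the gate it came out of. The reagent was 10% biotinylated, detergent-solubilized Sf9 membrane, applied for 1 hour at 4 °C to galactose-induced yeast display cells.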", "values": [{"sequence": "QVQLVESGGGLVQAGGSLRLSCAASGFTFNCYAMGWYRQAPGKERELVARIRWRGSTYYADSVKGRFTISRDNAKNTVYLQMNSLKPEDTAVYYCAARYYTKLYWGQGTQVTVSS", "polyreactivity (PSR sort gate)": "high polyreactivity"}, {"sequence": "QVQLVESGGGLVQAGGSLRLSCAASGFTFNDYAMGWYRQAPGKARELVAAIEWYGGRTYYADSVKGRFTISRDHAKNTDYFHMTSLKPVATAVYYCAAVLYSRLDWYRLDYWGQGTQVTVSS", "polyreactivity (PSR sort gate)": "low polyreactivity"}, {"sequence": "QVQLVESGGGLVQAGGSLRLSCAASGFTFNDYAMGWYRQAPGKEWELVAAIDWSGGRTYYADSVKGRFTISRDNAKNTVYLQMNSLKAEDTAVYYFAAVLYSRLYWYRLDYWGQGTQVTVSS", "polyreactivity (PSR sort gate)": "low polyreactivity"}, {"sequence": "QVQLVESGGGLVQAGGSLRLSCAASGFTFNKYAMGWYRQAPRKERELVAAISSSGGSTRYADSVKGRFTISRDNAKNTVYLQMISLKPEDTAVYYCAVYVTRDSGWWLYDYWGQGTQVTVSS", "polyreactivity (PSR sort gate)": "high polyreactivity"}, {"sequence": "QVQLVESGGGLVQAGGSLRLSCAASGFTFNRYAMGWYRQAPGKERELVAAISWSGTSTYYADSVKGRFTISRDNAKNTVYLQMNSLKPEDTAVYYCAARVKGQWNTYDYWGQGTQVTVSS", "polyreactivity (PSR sort gate)": "high polyreactivity"}, {"sequence": "QVQLVESGGGLVQAGGSLRLSCAASGFTFNSYAMGWYRQAPGKERELVAAISSSGGRTYYADSVKGRFTISRDNAKNTVYLQMNSLKPEETAVYYCNAVLVSYYSVGYDYWGQGTQVTVSS", "polyreactivity (PSR sort gate)": "high polyreactivity"}, {"sequence": "QVQLVESGGGLVQAGGSLRLSCAASGFTFNYAMGWYRQAPGKERELVAAISSAGTTYYADSVKGRFTISRDNAKNTVYLQMNSLKPEDTAVYYCAALARPKQDRYRYYYWGQGTQVTVSS", "polyreactivity (PSR sort gate)": "high polyreactivity"}, {"sequence": "QVQLVESGGGLVQAGGSLRLSCAASGFTFNYYAMGWYRQAPGKERELVAAITWRSGRTSYADSVKGRFTISRDNAKNTVYLQMNSLKPEDTAVYYCAKYTIYYGLTRYGYWGQGTQVTVSS", "polyreactivity (PSR sort gate)": "high polyreactivity"}, {"sequence": "QVQLVESGGGLVQAGGSLRLSCAASGFTFPDYAMGWYRQAPGKERELVAAITSSGGSTYYADSVKGRFTISRDNAKNTVYLQMNSLKPEDTAVYYCNAYISDDRYWSPAIEEDYWGQGTQVTVSS", "polyreactivity (PSR sort gate)": "high polyreactivity"}, {"sequence": "QVQLVESGGGLVQAGGSLRLSCAASGFTFPDYAMGWYRQAPGKERELVAGISSTGDSTYYADSGKGRYTISRDNAKNTGYLQRNSLKPEETAVYYCNAAQERPSIILFSKYDYWGQGTQETVSS", "polyreactivity (PSR sort gate)": "low polyreactivity"}, {"sequence": "QVQLVESGGGLVQAGGSLRLSCAASGFTFPEYTMGWYRQAPGKERELVAAISWSGGSTYYADSVKGRFTISRDNAKNSVYLQMNSLKPEDTAVYYCNWKRGYGYWGQGTQVTVSS", "polyreactivity (PSR sort gate)": "high polyreactivity"}, {"sequence": "QVQLVESGGGLVQAGGSLRLSCAASGFTFPFYTMGWYRQAPGKERELVAAITRSGASTFYADSVKGRFTISRDNAKNTVYLQMNSLKPEDTAVYYCAARRGYAPYEYWGQGTQVTVSS", "polyreactivity (PSR sort gate)": "high polyreactivity"}, {"sequence": "QVQLVESGGGLVQAGGSLRLSCAASGFTFPGYAMGWYRQAPGKERKLVAAITGSGGRTYYADSVKGRFTISRDNAKNTVYLQMNSLKPEDTAVYYCLARSYYNWYDYWGQGTQVTVSS", "polyreactivity (PSR sort gate)": "high polyreactivity"}, {"sequence": "QVQLVESGGGLVQAGGSLRLSCAASGFTFPGYTMGWSRQAPGKERELVAAISTSGGSTYYADSVKGRFTISRDNAKNTVYLQMNSLKPEDTAVYYCAAAKPRVISQNIIYDYWGQGTQVTVSS", "polyreactivity (PSR sort gate)": "high polyreactivity"}, {"sequence": "QVQLVESGGGLVQAGGSLRLSCAASGFTFPGYVMGWYRQAPGKERELVAAISRSGGRTYYADSVKGRFTISRDNAKNTVYLQMNSQKPDDTAVYYCNTPDPGRDSDYWGQGTQVTVSS", "polyreactivity (PSR sort gate)": "high polyreactivity"}, {"sequence": "QVQLVESGGGLVQAGGSLRLSCAASGFTFPPYAMGLYIQATGKETELVAAITVGGGRTYYADSVKARFTISRDNARNTVYLQMNWLKPVDTAVYYCDADSHASTYDYWGQGTQVTVSS", "polyreactivity (PSR sort gate)": "low polyreactivity"}]}]}
